According to US12662542B2, “Agnostic anti-mullerian hormone receptor binding peptides” (OVARES D LLC, priority 2019, dated 2026):
Square brackets hold non-standard residues; d marks the D form. Ends that are not written are not given here. Peptide text beside a SMILES is read from it.

Assays:
AMH-R2 = biological target: T1, AMH-R2 (Homo sapiens, UniProt Q16671); experiment: peptide microarray assay identifying AMH receptor binding peptides; conditions: microarray signal; for Average: average of Rep 1 and Rep 2; for Rep 1: replicate 1; for Rep 2: replicate 2
T1 construct: GST
T1 sequence (Q16671 18-573): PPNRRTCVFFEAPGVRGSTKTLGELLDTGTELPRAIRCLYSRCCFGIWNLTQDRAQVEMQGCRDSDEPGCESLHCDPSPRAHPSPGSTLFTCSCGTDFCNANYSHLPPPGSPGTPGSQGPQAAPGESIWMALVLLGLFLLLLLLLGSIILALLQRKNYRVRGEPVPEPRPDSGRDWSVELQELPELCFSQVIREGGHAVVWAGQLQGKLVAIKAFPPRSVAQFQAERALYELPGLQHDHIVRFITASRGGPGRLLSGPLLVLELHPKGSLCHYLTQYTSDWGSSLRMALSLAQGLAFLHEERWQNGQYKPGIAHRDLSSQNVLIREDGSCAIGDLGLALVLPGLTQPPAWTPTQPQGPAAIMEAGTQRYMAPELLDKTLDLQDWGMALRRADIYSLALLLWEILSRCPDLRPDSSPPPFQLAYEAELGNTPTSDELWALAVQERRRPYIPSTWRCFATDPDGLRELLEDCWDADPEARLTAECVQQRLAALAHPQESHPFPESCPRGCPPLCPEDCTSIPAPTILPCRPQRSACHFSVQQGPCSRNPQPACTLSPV
From the text: In view of the several actions of AMH, and because of the need for AMH receptor agonists and/or antagonist that can modify the activity of one or more of the AMH receptors, provided herein are AMH receptor binding peptides that modulate the activity of the AMH receptor, as described herein. Briefly, it was hypothesized that peptides that bind AMH receptors could be generated based on the amino acid sequence of the AMH biding site of the AMH-R2 receptor. More particularly, based on the amino acid sequence of the AMH-R2 that is responsible for binding AMH, as well as the amino acid sequences of AMH-R2 that are near the AMH binding site, a peptide microarray was used to identify candidate AMH receptor binding peptides that can activate AMH-R2 and thus produce similar effects to native AMH.
To identify candidate AMH receptor binding peptides described herein, a custom peptide library composed of replicate copies of a 124,000 17 mer peptide microarray was synthesized (Arizona State University, Tempe, AZ) using the method described in Legutki, J. B., et al., Scalable high-density peptide arrays for comprehensive health monitoring. Nat Commun., volume 5, 4785 (2014). The slide was assembled into an Arrayit 4×24 Hybridization Cassette and each peptide microarray was blocked with 150 uL of 30% human sera in 1×PBST for 1 hour at room temperature with shaking After blocking, the slide was washed 3× with 1×PBST using a Biotek plate washer prior to addition of protein targets. Each protein sample was diluted in 30% human sera in 1×PBST and 150 uL of each sample was dispensed into the appropriate wells in the cassette and incubated for 1 hour at 37 C with rotation at 300 rpm on a ThermoMix™ 500 heater/shaker.
After incubation, the cassette was dismantled, the slide washed 3 times in 1×PBST, rinsed three times with distilled, deionized water (ddH2O), and dried in a centrifuge for 2 minutes at 800 rpm. Secondary antibody (anti-GST, GE Healthcare™) was prepared at 10 nM in 30% human sera in 1×PBST and dispensed onto the slide. The slide was incubated for 1 hour at 37 C with rotation at 300 rpm as before. The slide was then washed 3 times in 1×PBST, rinsed 3 times with ddH2O, and dried in a centrifuge for 2 minutes at 800 rpm. Detection antibody, 10 nM Alexa Flour 647 donkey anti-goat IgG (H+L) (ThermoFisher Scientific™), was prepared in 0.75% casein in 1×PBST and dispensed onto the slide. The slide was covered and incubated for 1 hour at 37 C with rotation as before. The slide was washed 3 times in 1×PBST, rinsed 3 times with ddH2O, and dried in a centrifuge for 2 minutes at 800 rpm. The slide was scanned on an Innopsys™ Inoscan 910AL scanner and the resulting TIFF files were analyzed using the Genepix™ Pro 6.0 software. Data files were exported and analyzed using Microsoft Excel™ and JMP™ software.

granulosa cells (GCs) = experiment: Cell Counting Kit-8 (CCK-8) proliferation and cytotoxicity assay; assay type: cell-based, human
Experimental: GCs were isolated at the time of oocyte retrieval from three IVF/ICSI patients with tubal factor infertility as previously reported. Follicular aspirates were centrifuged at 900×g at room temperature. Blood contaminants were removed from GCs by Histopaque™ 1077 (Sigma-Aldrich™, St. Louis, MO, USA) gradient centrifugation at 800×g for 20 min at room temperature. The GC pellet was resuspended in a 20-ml volume of medium [Dulbecco's modified Eagle's medium/Ham's Nutrient Mixture F-12 (Gibco, Thermo Fisher Scientific, Inc., Waltham, MA, USA) with 10% fetal bovine serum (make) and washed by a further 10-min centrifugation at 500×g. The GC pellet was then resuspended in 1 ml GC preparation medium containing 0.02% (w/v) EDTA and gentle repeated pipetting was performed to break up any cellular clumps. Following further washing, the cell stock was resuspended in the GC culture medium. The cells were seeded in nine-well cell culture plates at a density of 100,000 cells/well in medium and incubated for 24 hours with PBS (control), the NegAMHR2BP (SEQ ID NO: 4), or AMHR2BP (SEQ ID NO: 1).
For determination of cytotoxicity of the novel AMHR2BP (SEQ ID NO: 1), a Cell Counting Kit-8 (CCK-8) proliferation and cytotoxicity assay was used. CCK-8 is a as a sensitive colorimetric assay where Dojindo's highly water-soluble tetrazolium salt is reduced by dehydrogenase activities in cells. Living cells reduce the salt, producing a yellow-color formazan dye, which is soluble in the culture media. The amount of dye, generated by the activities of dehydrogenases in GCs, is directly proportional to the number of living cells. CCK-8 detection sensitivity is very high. We tested the following: (a) AMHR2BP (SEQ ID NO: 1) concentrations: 20 μg/ml, 50 μg/ml, 80 μg/ml, in addition to (b) NegAMHR2BP (SEQ ID NO: 4) 80 μg/ml, and (c) untreated cells (control).

Molecule	Average (AMH-R2)	Rep 1 (AMH-R2)	Rep 2 (AMH-R2)	GCs considered lifeless (granulosa cells (GCs); 20 μg/ml) [%]	GCs that ceased function and were considered lifeless (granulosa cells (GCs); 80 μg/ml) [%]	GC toxicity (granulosa cells (GCs); 80 μg/ml)
VGwSFAPNGYrlSGVlG (VG[dW]SFAPNGY[dR][dL]SGV[dL]G) [SEQ ID NO: 9]	65165	65176	65153	–	–	–
GSwSGAHNFrkSGVlSG (GS[dW]SGAHNF[dR][dK]SGV[dL]SG) [SEQ ID NO: 11]	64458	65128	63787	–	–	–
CC(C)C[C@@H](NC(=O)[C@@H](C)NC(=O)[C@@H](NC(=O)CNC(=O)[C@H](CO)NC(=O)[C@@H](NC(=O)[C@@H](CCCNC(=N)N)NC(=O)[C@H](Cc1ccccc1)NC(=O)[C@H](CCC(N)=O)NC(=O)[C@H](CC(N)=O)NC(=O)[C@H](Cc1ccc(O)cc1)NC(=O)[C@H](C)NC(=O)[C@H](CC(N)=O)NC(=O)[C@H](CO)NC(=O)CNC(=O)[C@@H](N)C(C)C)C(C)C)C(C)C)C(=O)N[C@@H](CO)C(=O)O [SEQ ID NO: 1, VGSNAYNQFrVSGValS] (H-VGSNAYNQF[dR]VSGV[dA][dL]S-OH)	–	–	–	23	74	–
DGlGSVlArkNrrDaVl (DG[dL]GSV[dL]A[dR][dK]N[dR][dR]D[dA]V[dL]) [SEQ ID NO: 5]	65453	65431	65475	–	–	–
CC(C)C[C@@H](NC(=O)[C@@H](C)NC(=O)[C@@H](CCCNC(=N)N)NC(=O)[C@H](CCC(N)=O)NC(=O)[C@H](CC(N)=O)NC(=O)[C@@H](C)NC(=O)[C@H](CC(N)=O)NC(=O)[C@H](C)NC(=O)[C@H](Cc1ccccc1)NC(=O)[C@H](Cc1c[nH]cn1)NC(=O)[C@@H](CCCCN)NC(=O)[C@H](CC(N)=O)NC(=O)[C@H](CO)NC(=O)[C@@H](C)NC(=O)CNC(=O)[C@@H](Cc1c[nH]c2ccccc12)NC(=O)[C@H](N)CCCNC(=N)N)C(=O)O [SEQ ID NO: 4, rwGaSNkHFANaNQral] (H-[dR][dW]G[dA]SN[dK]HFAN[dA]NQ[dR][dA][dL]-OH; N-terminus and C-terminus assumed)	–	–	–	–	–	low GC toxicity
kGGYSNAYkHNPrVlGS ([dK]GGYSNAY[dK]HNP[dR]V[dL]GS) [SEQ ID NO: 7]	65425	65521	65329	–	–	–
VGPSVAYNYrVSGValG (VGPSVAYNY[dR]VSGV[dA][dL]G) [SEQ ID NO: 6]	65427	65462	65391	–	–	–
GlYwSAYNPwrHValaS (G[dL]Y[dW]SAYNP[dW][dR]HV[dA][dL][dA]S) [SEQ ID NO: 18]	59177	60848	57506	–	–	–
NGrSQAHNlrkaGValS (NG[dR]SQAHN[dL][dR][dK][dA]GV[dA][dL]S) [SEQ ID NO: 15]	61488	62940	60035	–	–	–
kGSNArkNrrDaSGVal ([dK]GSNA[dR][dK]N[dR][dR]D[dA]SGV[dA][dL]) [SEQ ID NO: 20]	47876	52284	43467	–	–	–
rGrSQAYNErSGValSG ([dR]G[dR]SQAYNE[dR]SGV[dA][dL]SG) [SEQ ID NO: 10]	64591	63931	65250	–	–	–
YGFPSArVNrYwNrHDa (YGFPSA[dR]VN[dR]Y[dW]N[dR]HD[dA]) [SEQ ID NO: 16]	61418	60363	62472	–	–	–
GlQwSFANGQwrGalSG (G[dL]Q[dW]SFANGQ[dW][dR]G[dA][dL]SG) [SEQ ID NO: 12]	63783	64623	62943	–	–	–
YwGwSHAkaNQFPNrla (Y[dW]G[dW]SHA[dK][dA]NQFPN[dR][dL][dA]) [SEQ ID NO: 3]	65484	65502	65465	–	–	–
GGrSVSANlQrErkVaG (GG[dR]SVSAN[dL]Q[dR]E[dR][dK]V[dA]G) [SEQ ID NO: 19]	56883	55679	58087	–	–	–
FNGPSArNFYrHDVaVS (FNGPSA[dR]NFY[dR]HDV[dA]VS) [SEQ ID NO: 14]	61835	65284	58385	–	–	–
EGlQSSAYNNYwrklVa (EG[dL]QSSAYNNY[dW][dR][dK][dL]V[dA]) [SEQ ID NO: 17]	61198	60241	62155	–	–	–
rGSYSNlFANSGErVGV ([dR]GSYSN[dL]FANSGE[dR]VGV) [SEQ ID NO: 13]	63774	63996	63551	–	–	–
wHGwSGANlFPYrSGVS ([dW]HG[dW]SGAN[dL]FPY[dR]SGVS) [SEQ ID NO: 8]	65335	65158	65511	–	–	–
